Results on 1 molecule are retold here after patent CN109021104A (SHANGHAI CHEMPARTNER CO LTD; GATEWAY BIOTECHNOLOGY SHANGHAI …, dated 2018).

The assay has as its target T1, 人源PDGFRβ全长 (human PDGFRβ, full length, on cells) (human, UniProt P09619 33-1106).
T1 construct: whole, on cells; also called HEK293-hPDGFRβ稳定细胞株; 细胞表面的PDGFRβ
The assay can be described thus: flow cytometry on HEK293-hPDGFRβ cells, Alexa488 secondary antibody. A general note: In flow cytometry, cells or beads pass a laser one at a time.

T1 sequence (P09619 33-1106): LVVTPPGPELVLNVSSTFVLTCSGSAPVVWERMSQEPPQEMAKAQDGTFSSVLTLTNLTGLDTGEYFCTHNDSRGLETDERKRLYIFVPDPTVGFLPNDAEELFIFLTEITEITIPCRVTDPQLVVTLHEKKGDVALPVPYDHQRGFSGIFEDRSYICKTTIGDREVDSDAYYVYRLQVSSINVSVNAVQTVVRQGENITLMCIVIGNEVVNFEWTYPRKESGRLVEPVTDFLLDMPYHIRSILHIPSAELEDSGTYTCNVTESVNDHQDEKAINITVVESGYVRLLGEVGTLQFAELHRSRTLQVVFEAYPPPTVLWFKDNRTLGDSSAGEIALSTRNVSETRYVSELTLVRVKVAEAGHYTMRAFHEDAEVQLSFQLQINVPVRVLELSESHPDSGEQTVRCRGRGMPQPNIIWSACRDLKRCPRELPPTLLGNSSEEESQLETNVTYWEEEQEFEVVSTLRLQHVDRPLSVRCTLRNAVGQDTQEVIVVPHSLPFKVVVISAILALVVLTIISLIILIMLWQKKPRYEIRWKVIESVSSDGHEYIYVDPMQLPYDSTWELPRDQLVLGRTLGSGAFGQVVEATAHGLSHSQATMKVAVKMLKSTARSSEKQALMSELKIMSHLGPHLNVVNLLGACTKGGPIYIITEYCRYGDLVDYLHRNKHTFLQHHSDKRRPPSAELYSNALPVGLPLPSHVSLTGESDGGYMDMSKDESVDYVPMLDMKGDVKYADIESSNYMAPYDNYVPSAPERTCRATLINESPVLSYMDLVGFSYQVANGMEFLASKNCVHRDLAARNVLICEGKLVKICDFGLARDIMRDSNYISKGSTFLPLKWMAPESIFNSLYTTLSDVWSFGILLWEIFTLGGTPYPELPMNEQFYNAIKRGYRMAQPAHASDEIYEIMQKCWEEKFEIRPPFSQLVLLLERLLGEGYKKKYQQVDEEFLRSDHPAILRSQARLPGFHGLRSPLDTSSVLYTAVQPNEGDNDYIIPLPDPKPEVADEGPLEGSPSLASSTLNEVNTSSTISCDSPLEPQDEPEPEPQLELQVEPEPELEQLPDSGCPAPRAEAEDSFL

B1: 39E10E12B3 (antibody, V domains shown)
VH: EVQLVESGGGVVQPGRSLRLSCAASGFTFSSYGMHWVRQAPGKGLEWVAVIWYDGSNKYYADSVKGRFTISRDNSKNTLYLQMNSLRAEDTAVYYCAVTGDVDYWGQGTLVTVSS
notes: Heavy-chain-only monoclonal antibody (no light chain), purified from a hybridoma made from HCAb transgenic mice; also called 重链抗体39E10E12B3; PDGFRβ抗体
Consider B1, for which the binding result was “binds”.
